{"source": "patent US20160075744", "about": "“DNA-BINDING PROTEIN USING PPR MOTIF, AND USE THEREOF” (KYUSHU UNIVERSITY, NATATIONAL UNIVERSITY CORPORATION, published 2016)", "binders": {"B1": {"name": "pTac2 target (8x in reporter) (dsDNA)", "DNA 1": "AACTTTCGTCACTCA", "DNA 2": "TGAGTGACGAAAGTT"}, "B2": {"name": "pTac2 target (4x in reporter) (dsDNA)", "DNA 1": "AACTTTCGTCACTCA", "DNA 2": "TGAGTGACGAAAGTT"}, "B3": {"name": "GUN1 target (8x in reporter) (dsDNA)", "DNA 1": "AATTTGTCGAT", "DNA 2": "ATCGACAAATT"}, "B4": {"name": "GUN1 target (4x in reporter) (dsDNA)", "DNA 1": "AATTTGTCGAT", "DNA 2": "ATCGACAAATT"}}, "key": {"pTac2-VP64 [1]": {"biological_target": "T1, pTac2-VP64 (Arabidopsis thaliana, UniProt Q9S7Q2 SEQ:106-632)", "T1 chain": "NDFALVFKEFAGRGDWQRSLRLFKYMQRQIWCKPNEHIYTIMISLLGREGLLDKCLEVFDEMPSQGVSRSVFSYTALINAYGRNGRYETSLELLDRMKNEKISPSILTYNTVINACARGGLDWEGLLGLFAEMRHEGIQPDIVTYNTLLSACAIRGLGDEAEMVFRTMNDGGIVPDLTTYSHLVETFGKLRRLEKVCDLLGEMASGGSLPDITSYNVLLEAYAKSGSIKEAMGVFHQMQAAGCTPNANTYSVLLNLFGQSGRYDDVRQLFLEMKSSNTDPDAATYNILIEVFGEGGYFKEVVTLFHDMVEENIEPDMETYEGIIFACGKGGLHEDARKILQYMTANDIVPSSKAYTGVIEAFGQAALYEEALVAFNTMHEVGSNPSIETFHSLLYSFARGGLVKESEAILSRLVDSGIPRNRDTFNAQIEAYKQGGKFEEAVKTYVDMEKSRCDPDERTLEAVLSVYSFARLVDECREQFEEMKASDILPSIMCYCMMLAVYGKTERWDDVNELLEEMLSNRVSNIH", "assay": "cell_activity; HEK293T dual luciferase, 8x target, vs pminCMV-luc2", "protocol": "(§1) The PPR-VP64 expression vector prepared in the section 1, the firefly luciferase expression vector prepared in the section 2, and the pRL-CMV vector (expression vector for Renilla luciferase, Promega) as a reference were introduced by using Lipofectamine LTX (Life Technologies). The DMEM medium (25 μl) was added to each well of a 96-well plate, and a mixture containing the PPR-VP64 expression vector (400 ng), firefly luciferase expression vector (100 ng), and pRL-CMV vector (20 ng) was further added. Then, a mixture of the DMEM medium (25 μl) and Lipofectamine LTX (0.7 μl) was added to each well, the plate was left standing at room temperature for 30 minutes, then 6×10⁴ of the HEK293 T cells suspended in the DMEM medium containing 15% fetal bovine serum (100 μl) were added, and the cells were cultured at 37° C. in a CO₂ incubator for 24 hours.\n(§2) The luciferase activity was compared for the cases of introducing pTac2-VP64 or GUN1-VP64 together with pminCMV-luc2 for a negative control, or the reporter vector having 4 or 8 target sequences (table mentioned below, FIG. 6). The comparison of the activity was performed on the basis of standardized scores obtained by dividing the measured values obtained with Fluc (firefly luciferase) with the measured value obtained with Rluc (Renilla luciferase) as the reference (Fluc/Rluc). […]"}, "pTac2-VP64 [2]": {"biological_target": "T1, pTac2-VP64", "assay": "cell_activity; HEK293T dual luciferase, 4x target, vs pminCMV-luc2", "protocol": "as §1, §2"}, "GUN1-VP64 [3]": {"biological_target": "T2, GUN1-VP64 (Arabidopsis thaliana, UniProt Q9SIC9 SEQ:234-620)", "T2 chain": "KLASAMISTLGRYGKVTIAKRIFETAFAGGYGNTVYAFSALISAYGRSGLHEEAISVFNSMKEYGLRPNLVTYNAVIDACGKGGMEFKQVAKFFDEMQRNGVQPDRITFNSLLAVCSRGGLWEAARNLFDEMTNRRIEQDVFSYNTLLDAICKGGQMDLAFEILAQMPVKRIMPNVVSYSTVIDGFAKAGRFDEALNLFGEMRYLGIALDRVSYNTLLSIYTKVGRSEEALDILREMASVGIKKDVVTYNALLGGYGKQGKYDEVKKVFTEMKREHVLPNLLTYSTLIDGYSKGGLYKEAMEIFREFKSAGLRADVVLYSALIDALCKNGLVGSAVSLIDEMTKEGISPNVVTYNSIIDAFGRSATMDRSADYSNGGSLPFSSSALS", "assay": "cell_activity; HEK293T dual luciferase, 8x target, vs pminCMV-luc2", "protocol": "as §1, §2"}, "GUN1-VP64 [4]": {"biological_target": "T2, GUN1-VP64", "assay": "cell_activity; HEK293T dual luciferase, 4x target, vs pminCMV-luc2", "protocol": "as §1, §2"}}}
{"binder": "B1", "values": [{"measurement": "activity", "setting": "pTac2-VP64 [1]", "value": 4.81, "unit": "fold activation"}]}
{"binder": "B2", "values": [{"measurement": "activity", "setting": "pTac2-VP64 [2]", "value": 2.91, "unit": "fold activation"}]}
{"binder": "B3", "values": [{"measurement": "activity", "setting": "GUN1-VP64 [3]", "value": 3.15, "unit": "fold activation"}]}
{"binder": "B4", "values": [{"measurement": "activity", "setting": "GUN1-VP64 [4]", "value": 2.88, "unit": "fold activation"}]}
